Target: Acinetobacter baumannii rhodanese-like domain protein (Ab-RLD) (Acinetobacter baumannii)
Assay: SEC

Acinetobacter baumannii rhodanese-like domain protein (Ab-RLD) (enzyme)
stoichiometry N: 2

From PMC10925157
